Drawing on PMC7477745, this text covers efficacy (Emax) of cytokine production (TNF-α, IFN-γ, IL-2; ELISA) by c58c61-TCR CD8+ T cell blasts on plate-immobilised pMHC with a titration of coimmobilised CD58, 8 h and potency (EC50 of pMHC) of cytokine production (TNF-α, IFN-γ, IL-2; ELISA) by c58c61-TCR CD8+ T cell blasts on plate-immobilised pMHC with a titration of coimmobilised CD58, 8 h for one substance.

For the assay, the target named is CD2 (human (endogenous in primary CD8+ T cells)) (UniProt P06729).
UniProt P06729, sequence (P06729 25-351): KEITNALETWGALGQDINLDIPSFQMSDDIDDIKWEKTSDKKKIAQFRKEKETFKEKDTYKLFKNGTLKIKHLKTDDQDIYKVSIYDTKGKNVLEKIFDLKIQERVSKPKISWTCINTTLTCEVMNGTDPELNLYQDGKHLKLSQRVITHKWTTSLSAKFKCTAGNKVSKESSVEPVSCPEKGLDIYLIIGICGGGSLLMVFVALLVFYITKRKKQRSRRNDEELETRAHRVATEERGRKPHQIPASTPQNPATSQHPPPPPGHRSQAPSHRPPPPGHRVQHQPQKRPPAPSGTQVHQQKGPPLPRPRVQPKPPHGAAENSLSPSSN

As to “extracellular part of human CD58 (aa 29–213) (from UniProt P19256 29-213) (ligand)”, the efficacy (Emax) of cytokine production (TNF-α, IFN-γ, IL-2; ELISA) by c58c61-TCR CD8+ T cell blasts on plate-immobilised pMHC with a titration of coimmobilised CD58, 8 h was > 10 fold and the potency (EC50 of pMHC) of cytokine production (TNF-α, IFN-γ, IL-2; ELISA) by c58c61-TCR CD8+ T cell blasts on plate-immobilised pMHC with a titration of coimmobilised CD58, 8 h was 50 fold.
